Biological target: the molecule itself
Experiment: cryo-EM structure

B1: full length human Top2α (1-1531) (enzyme)
chain: MEVSPLQPVNENMQVNKIKKNEDAKKRLSVERIYQKKTQLEHILLRPDTYIGSVELVTQQMWVYDEDVGINYREVTFVPGLYKIFDEILVNAADNKQRDPKMSCIRVTIDPENNLISIWNNGKGIPVVEHKVEKMYVPALIFGQLLTSSNYDDDEKKVTGGRNGYGAKLCNIFSTKFTVETASREYKKMFKQTWMDNMGRAGEMELKPFNGEDYTCITFQPDLSKFKMQSLDKDIVALMVRRAYDIAGSTKDVKVFLNGNKLPVKGFRSYVDMYLKDKLDETGNSLKVIHEQVNHRWEVCLTMSEKGFQQISFVNSIATSKGGRHVDYVADQIVTKLVDVVKKKNKGGVAVKAHQVKNHMWIFVNALIENPTFDSQTKENMTLQPKSFGSTCQLSEKFIKAAIGCGIVESILNWVKFKAQVQLNKKCSAVKHNRIKGIPKLDDANDAGGRNSTECTLILTEGDSAKTLAVSGLGVVGRDKYGVFPLRGKILNVREASHKQIMENAEINNIIKIVGLQYKKNYEDEDSLKTLRYGKIMIMTDQDQDGSHIKGLLINFIHHNWPSLLRHRFLEEFITPIVKVSKNKQEMAFYSLPEFEEWKSSTPNHKKWKVKYYKGLGTSTSKEAKEYFADMKRHRIQFKYSGPEDDAAISLAFSKKQIDDRKEWLTNFMEDRRQRKLLGLPEDYLYGQTTTYLTYNDFINKELILFSNSDNERSIPSMVDGLKPGQRKVLFTCFKRNDKREVKVAQLAGSVAEMSSYHHGEMSLMMTIINLAQNFVGSNNLNLLQPIGQFGTRLHGGKDSASPRYIFTMLSSLARLLFPPKDDHTLKFLYDDNQRVEPEWYIPIIPMVLINGAEGIGTGWSCKIPNFDVREIVNNIRRLMDGEEPLPMLPSYKNFKGTIEELAPNQYVISGEVAILNSTTIEISELPVRTWTQTYKEQVLEPMLNGTEKTPPLITDYREYHTDTTVKFVVKMTEEKLAEAERVGLHKVFKLQTSLTCNSMVLFDHVGCLKKYDTVLDILRDFFELRLKYYGLRKEWLLGMLGAESAKLNNQARFILEKIDGKIIIENKPKKELIKVLIQRGYDSDPVKAWKEAQQKVPDEEENEESDNEKETEKSDSVTDSGPTFNYLLDMPLWYLTKEKKDELCRLRNEKEQELDTLKRKSPSDLWKEDLATFIEELEAVEAKEKQDEQVGLPGKGGKAKGKKTQMAEVLPSPRGQRVIPRITIEMKAEAEKKNKKKIKNENTEGSPQEDGVELEGLKQRLEKKQKREPGTKTKKQTTLAFKPIKKGKKRNPWSDSESDRSSDESNFDVPPRETEPRRAATKTKFTMDLDSDEDFSDFDEKTDDEDFVPSDASPPKTKTSPKLSNKELKPQKSVVSDLEADDVKGSVPLSSSPPATHFPDETEITNPVPKKNVTVKKTAAKSQSSTSTTGAKKRAAPKGTKRDPALNSGVSQKPDPAKTKNRRKRKPSTSDDSDSNFEKIVSKAVTSKKSKGESDDFHMDFDSAVAPRAKSVRAKKPIKYLEESDEDDLF
stoichiometry N: 2
